Patent US7951775B2, “Methods and pharmaceutical compositions for GnRH-I and GnRH-II modulation of T-cell activity, adhesion, migration and extravasation” (priority 2001, dated 2011)
“Also recorded” adds a separate entry of the source.

Columns and labels:
normal human T-cells = test: T-cell adhesion to laminin assay; format: cell-based; settings: 10 nM, 48 hours pretreatment; PMA 10 ng/ml positive control; four donors
Experimental: Adhesion of T-cells to laminin was assayed as follows: normal human T-cells, purified from a fresh blood sample, were suspended (1×10^6 cells/ml) in rest medium (RPMI-1640, supplemented with 10% fetal calf serum (Sigma Chemical Co., St. Louis, Mo.), 1% antibiotics, 1% glutamine (Biological Industries, Beit Haemek, Israel) and 0.4% fungizone (GibcoBRL, Life Technologies Ltd., Paisley, Scotland)). The cells were then supplemented with 10 nM GnRH-I or GnRH-II and incubated for variable periods of time (0.5-72 hours, 37° C., 7.5% CO2 humidified incubator). Following incubation the cells were washed and resuspended in adhesion medium (RPMI-1640 supplemented with 0.1% bovine serum albumin (BSA, Sigma)). […] The optical density (OD) was measured at 405 nm in a standard ELISA reader. […]
To study the functional consequences of the increase in the 67 kDa LR expression level following GnRH stimulation, the ability of GnRH-treated normal human T-cells to adhere to laminin was assessed. […] In parallel, increasing numbers of untreated cells were seeded on separate plates, in order to establish a standard curve, enabling the relation of results obtained in units of fluorescence intensity (OD) to actual number of cells.

EL-4 T-lymphoma cells = test: Double immunofluorescence staining for 67 kDa LR and TCRαβ on EL-4 cells; format: cell-based, mouse; settings: 10 nM, vs untreated EL-4 cells
Experimental: Normal human T-cells, isolated from fresh peripheral blood lymphocytes, or EL-4 T-lymphocyte cells were subjected to double immunofluorescence staining, using a mouse monoclonal anti-67 kDa LR antibody (100 μl of 1:20 dilution per 1×10^6 cells/tube; 30 minutes on ice), or normal mouse sera for control. The cells were then stained with an FITC-conjugated goat anti-mouse IgG (100 μl of 1:100 dilution), and PE-conjugated mouse anti-human TCR αβ mAb (2 μl of stock). Cells that were stained only with the second and third antibodies served as additional negative controls. Fluorescence profiles were recorded in a FACSORT.
Normal syngeneic C57BL/6 female recipient mice were then subjected to 300 rad total body irradiation, and several hours later inoculated I.P with 5×10^6 cells/mouse of either untreated or GnRH-treated EL-4 lymphoma cells. In parallel, samples from the treated and GnRH inoculated EL-4 cells were tested by double immunofluorescence (as described above) for the level of their 67 kD LR and TCRαβ. […] Following further dilution in PBS for the kidney (1:3) and liver (1:10), the number of fluorescent cells, as well as the total number of cells in each tube, were counted by flow cytometry (FACSORT).

[1] = tested on: mouse antigen-specific T cells; test: Atlas mouse cDNA expression array of GnRH-II treated T-cells; format: cell-based
Experimental: Anti-MBP 87-99 T-cell lines were established from lymph nodes of SJI/J mice as described^23 and analyzed for their specificity to MBP 87-99 peptide in a proliferation assay.
Poly A+RNA was extracted from the mouse anti-MBP 87-99 cell line before and after treatment with 10 nM GnRH-II for 24 hours, using the ATLAS Pure Total RNA Labeling System (Clontech Laboratories, Inc. Palo Alto, Calif.) according to manufacturers recommendations. Following DNase treatment, ^32P-labeled cDNA was prepared from poly A+ RNA preparations that were prepared from either untreated or GnRH-II treated mouse T-cells. Hybridizations to the ATLAS Mouse cDNA Expression Arrays membranes (Catalog No. PT3140-1, Clontech Laboratories), were performed according to the user manual, and the expression pattern was visualized by autoradiography.
Poly A+ RNA was prepared from both GnRH-II-treated and untreated cells and reverse transcribed to ^32P-labeled cDNA. Using an Atlas cDNA expression array (i.e. a positively charged nylon membrane spotted with 1200 different cDNAs) for identification of effected genes, the reverse transcribed products were characterized by hybridization to the atlas membranes. The differential pattern of expression between untreated cells and GnRH-II-treated cells was visualized by autoradiography (FIGS. 1A and 1B).

Row | Molecule | T-cell adhesion to laminin (normal human T-cells) | surface level of 67 kDa LR on TCR αβ+ EL-4 cells (EL-4 T-lymphoma cells) | expression of mRNA encoding non-integrin 67 kDa laminin receptor ([1]; 10 nM, 24 hours, resting mouse antigen-specific T-cells, vs untreated cells) | transcription of other genes including house-keeping gene nucleoside diphosphate kinase B ([1]; 10 nM, 24 hours, vs untreated cells) | synthesis of CD4 antigen, Cyclin D2 and thymus cell antigen 1 genes (changed by antigenic stimulation) ([1]; GnRH-II alone 10 nM, data not shown)
1 | pGlu-His-Trp-Ser-Tyr-Gly-Leu-Arg-Pro-Gly-NH2 [GnRH-I] | as efficiently as PMA; also recorded: as markedly as does PMA | increases | – | – | –
2 | GnRH-II: unique ten amino acid long neuropeptide, 70% homologous in peptide structure to GnRH-I, encoded by its own gene (peptide) peptide: QHWSHGWYPGGKRALSSAQDPQNALRPPGRALDTAAGSPVQTAHGLPSDALAPLDDSMPWEGRTTAQWSLHRKRHLARTLLTAAREPRPAPPSSNKV | as efficiently as PMA; also recorded: as markedly as does PMA | increases | induced the over expression | not affected | did not affect
